Key:
[1] = molecular target: T1, GC1 (GC-E, ROS-GC1, RetGC1) (Homo sapiens, UniProt Q02846); assay: cGMP production by reversed-phase HPLC; format: biochemical; conditions: GC1 membranes, 1 mM free Mg2+, low (<19 nM) or high (~30 µM) Ca2+, pH 7.4; basal and with mGCAP3 or mGCAP1
T1 construct: gene GUCY2D
T1 sequence (Q02846 52-1103): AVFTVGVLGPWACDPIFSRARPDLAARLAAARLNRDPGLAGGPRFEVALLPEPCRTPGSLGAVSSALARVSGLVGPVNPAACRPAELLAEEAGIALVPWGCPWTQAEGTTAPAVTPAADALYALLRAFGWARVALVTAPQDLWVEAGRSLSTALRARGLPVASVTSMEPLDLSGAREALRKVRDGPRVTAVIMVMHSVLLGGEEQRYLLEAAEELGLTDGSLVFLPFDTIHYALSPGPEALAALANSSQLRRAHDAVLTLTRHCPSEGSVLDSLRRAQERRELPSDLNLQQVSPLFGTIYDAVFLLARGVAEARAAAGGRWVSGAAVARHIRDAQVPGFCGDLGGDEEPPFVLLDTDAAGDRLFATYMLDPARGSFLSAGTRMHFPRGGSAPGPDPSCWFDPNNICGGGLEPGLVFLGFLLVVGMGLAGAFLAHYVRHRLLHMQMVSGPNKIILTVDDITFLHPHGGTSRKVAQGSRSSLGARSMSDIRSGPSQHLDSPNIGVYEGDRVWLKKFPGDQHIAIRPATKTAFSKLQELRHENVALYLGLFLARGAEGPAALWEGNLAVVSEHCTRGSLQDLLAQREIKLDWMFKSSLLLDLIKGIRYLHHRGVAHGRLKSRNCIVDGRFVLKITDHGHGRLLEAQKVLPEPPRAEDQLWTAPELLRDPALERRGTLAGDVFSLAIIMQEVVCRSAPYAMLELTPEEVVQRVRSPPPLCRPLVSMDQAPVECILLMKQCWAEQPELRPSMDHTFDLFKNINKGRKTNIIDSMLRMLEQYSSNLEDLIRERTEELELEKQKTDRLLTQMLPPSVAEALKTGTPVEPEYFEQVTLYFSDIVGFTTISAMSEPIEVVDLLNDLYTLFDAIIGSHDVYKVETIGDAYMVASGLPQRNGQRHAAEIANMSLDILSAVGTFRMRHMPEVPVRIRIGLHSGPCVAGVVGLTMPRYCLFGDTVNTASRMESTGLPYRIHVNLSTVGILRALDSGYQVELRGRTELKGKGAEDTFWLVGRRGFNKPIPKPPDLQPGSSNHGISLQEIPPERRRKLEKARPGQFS
T1 sequence (O95843 2-209 partner): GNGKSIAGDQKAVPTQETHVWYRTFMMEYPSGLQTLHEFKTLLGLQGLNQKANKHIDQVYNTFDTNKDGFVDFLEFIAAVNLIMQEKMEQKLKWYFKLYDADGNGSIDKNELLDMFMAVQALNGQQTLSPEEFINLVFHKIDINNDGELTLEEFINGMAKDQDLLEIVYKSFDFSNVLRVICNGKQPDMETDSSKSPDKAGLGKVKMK

[2] = molecular target: the molecule itself; assay: SEC; analytical SEC, Superose 12 10/300GL, ~40 µM protein loaded, 20 mM Tris-HCl pH 7.5, 150 mM KCl, 1 mM DTT, 500 µM EGTA (apo), 25 °C; apparent MM from a calibration curve
[3] = molecular target: the molecule itself; assay: SEC; analytical SEC, Superose 12 10/300GL, ~40 µM protein loaded, 20 mM Tris-HCl pH 7.5, 150 mM KCl, 1 mM DTT, 1 mM Mg2+ and 500 µM Ca2+, 25 °C; apparent MM from a calibration curve

## Nc1nc2c(ncn2[C@@H]2O[C@@H]3COP(=O)(O)O[C@H]3[C@H]2O)c(=O)[nH]1 [cGMP]
[1]
  cGMP production by reversed-phase HPLC: The production of cGMP was analyzed by reversed phase HPLC

B1: non-myristoylated wild-type human GCAP3 (guanylate cyclase-activating protein 3) (natural protein, UniProt O95843-1 1-209, looked up)
chain: MGNGKSIAGDQKAVPTQETHVWYRTFMMEYPSGLQTLHEFKTLLGLQGLNQKANKHIDQVYNTFDTNKDGFVDFLEFIAAVNLIMQEKMEQKLKWYFKLYDADGNGSIDKNELLDMFMAVQALNGQQTLSPEEFINLVFHKIDINNDGELTLEEFINGMAKDQDLLEIVYKSFDFSNVLRVICNGKQPDMETDSSKSPDKAGLGKVKMK
notes: Cloned into a plasmid named pET11-E6S; also called nmWT; nmWT GCAP3
[2]
  stoichiometry N: 2

B2: non-myristoylated D101H variant of human GCAP3 (natural protein, UniProt O95843-1 1-209, looked up)
chain: MGNGKSIAGDQKAVPTQETHVWYRTFMMEYPSGLQTLHEFKTLLGLQGLNQKANKHIDQVYNTFDTNKDGFVDFLEFIAAVNLIMQEKMEQKLKWYFKLYHADGNGSIDKNELLDMFMAVQALNGQQTLSPEEFINLVFHKIDINNDGELTLEEFINGMAKDQDLLEIVYKSFDFSNVLRVICNGKQPDMETDSSKSPDKAGLGKVKMK
notes: Variant found in a patient with retinitis pigmentosa; Cloned into a plasmid named pET11-E6S; also called nmD101H; nmD101H GCAP3
[3]
  stoichiometry N: 2

B3: myristoylated wild-type human GCAP3 (guanylate cyclase-activating protein 3) (natural protein, UniProt O95843-1 1-209, looked up)
chain: MGNGKSIAGDQKAVPTQETHVWYRTFMMEYPSGLQTLHEFKTLLGLQGLNQKANKHIDQVYNTFDTNKDGFVDFLEFIAAVNLIMQEKMEQKLKWYFKLYDADGNGSIDKNELLDMFMAVQALNGQQTLSPEEFINLVFHKIDINNDGELTLEEFINGMAKDQDLLEIVYKSFDFSNVLRVICNGKQPDMETDSSKSPDKAGLGKVKMK
modifications: N-terminal myristoylation (degree of myristoylation 58.35%)
notes: Cloned into a plasmid named pET11-E6S; The sample is a mix of about 58% myristoylated and the rest non-myristoylated protein; also called mWT; mWT GCAP3
[2]
  stoichiometry N: 2

From article PMC8948881, “Molecular Properties of Human Guanylate Cyclase-Activating Protein 3 (GCAP3) and Its Possible Association with Retinitis Pigmentosa” (International Journal of Molecular Sciences, 2022)
